Results on one molecule are retold here after patent publication EP3464323B1.

The target of the experiment is CY5-CAS9:sgRNA complex (1:1 molar ratio) (S. pyogenes), Q99ZW2. Briefly: fluorescence titration; 5 nM CY5-CAS9:sgRNA (1:1) titrated with peptide, quadratic fit. The following applies: remark: other sources report otherwise.

No end group written: not given here.

Sequence of CY5-CAS9:sgRNA complex (1:1 molar ratio) (S. pyogenes), Q99ZW2 (Q99ZW2 whole entry, one chain of several): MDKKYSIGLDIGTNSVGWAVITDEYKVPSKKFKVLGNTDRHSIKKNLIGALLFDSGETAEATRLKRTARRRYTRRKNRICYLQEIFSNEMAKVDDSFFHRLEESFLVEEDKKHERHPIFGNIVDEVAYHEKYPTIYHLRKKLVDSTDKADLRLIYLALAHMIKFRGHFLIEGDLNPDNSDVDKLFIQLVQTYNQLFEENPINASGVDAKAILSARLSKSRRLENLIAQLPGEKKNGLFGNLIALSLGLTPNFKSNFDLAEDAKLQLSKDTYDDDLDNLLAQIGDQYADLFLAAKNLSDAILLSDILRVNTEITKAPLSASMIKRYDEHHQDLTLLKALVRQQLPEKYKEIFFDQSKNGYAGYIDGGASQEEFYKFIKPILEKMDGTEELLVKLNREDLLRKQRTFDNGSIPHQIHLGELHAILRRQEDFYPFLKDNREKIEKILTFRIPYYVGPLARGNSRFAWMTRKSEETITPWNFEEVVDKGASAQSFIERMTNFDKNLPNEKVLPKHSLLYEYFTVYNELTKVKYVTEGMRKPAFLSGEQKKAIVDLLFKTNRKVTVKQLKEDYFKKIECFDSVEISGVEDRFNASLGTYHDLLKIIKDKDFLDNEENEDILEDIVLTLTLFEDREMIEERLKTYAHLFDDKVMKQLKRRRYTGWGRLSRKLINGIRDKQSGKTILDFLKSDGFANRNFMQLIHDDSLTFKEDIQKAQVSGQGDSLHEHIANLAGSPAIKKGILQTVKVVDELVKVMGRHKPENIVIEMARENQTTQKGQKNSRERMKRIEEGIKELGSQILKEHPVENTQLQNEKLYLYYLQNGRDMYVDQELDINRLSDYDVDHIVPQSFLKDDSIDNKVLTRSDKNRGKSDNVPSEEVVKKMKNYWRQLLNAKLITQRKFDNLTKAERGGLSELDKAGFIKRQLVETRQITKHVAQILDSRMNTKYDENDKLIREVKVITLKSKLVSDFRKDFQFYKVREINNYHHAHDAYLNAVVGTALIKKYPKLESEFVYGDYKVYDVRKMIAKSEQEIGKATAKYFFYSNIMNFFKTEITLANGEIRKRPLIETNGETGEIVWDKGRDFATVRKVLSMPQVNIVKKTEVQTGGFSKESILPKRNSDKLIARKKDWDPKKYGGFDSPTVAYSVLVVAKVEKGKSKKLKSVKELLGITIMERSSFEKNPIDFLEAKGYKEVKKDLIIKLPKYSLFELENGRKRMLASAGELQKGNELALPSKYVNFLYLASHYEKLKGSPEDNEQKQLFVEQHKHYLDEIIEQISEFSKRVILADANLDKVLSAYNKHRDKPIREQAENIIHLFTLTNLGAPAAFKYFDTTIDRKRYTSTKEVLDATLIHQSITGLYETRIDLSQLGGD

On to GLWRALWRLLRSLWRLLWKV (also: acetate salt) [CADY], for which the Kd was found to be 21 nM.
